# Reference: patent US20170333524A1
# Assays:
# [1] = target: MART-1 (ELA peptide) peptide on HLA-A*02:01 (human); test: SPR, Biacore 3000; TCR amine-coupled to a CM5 chip, refolded ELA/HLA-A2 injected, 25 °C (Table 3, ELA); soluble, other
# [2] = target: MART-1 (ELA peptide) peptide on HLA-A*02:01 (human); test: SPR, Biacore 3000; TCR on the chip, refolded pMHC injected. The row prints the target as 'AAG (SEQ ID NO 5', but its ratio 395.8 is taken against the WT ELA value 9.5, and Table 3 gives 0.024 under ELA); soluble, other
# [3] = target: MART-1 (ELA peptide) peptide on HLA-A*02:01 (human); test: SPR, Biacore 3000; TCR amine-coupled to a CM5 chip, refolded pMHC injected, 25 °C, 1:1 Langmuir fit; soluble, other
Kd [1] [nM],Kd [2] [nM],Kd [3] [nM],Substance
24,24,–,DMF5 TCR αD26Y/βL98W
–,–,2900,DMF5 TCR βL98W
